12 molecules from PMC10977726 (PLOS ONE, 2024) can be followed below.

T1: biotin-Ly6E-rat IgG2b Fc (human | rat, biotin)
T1 chain: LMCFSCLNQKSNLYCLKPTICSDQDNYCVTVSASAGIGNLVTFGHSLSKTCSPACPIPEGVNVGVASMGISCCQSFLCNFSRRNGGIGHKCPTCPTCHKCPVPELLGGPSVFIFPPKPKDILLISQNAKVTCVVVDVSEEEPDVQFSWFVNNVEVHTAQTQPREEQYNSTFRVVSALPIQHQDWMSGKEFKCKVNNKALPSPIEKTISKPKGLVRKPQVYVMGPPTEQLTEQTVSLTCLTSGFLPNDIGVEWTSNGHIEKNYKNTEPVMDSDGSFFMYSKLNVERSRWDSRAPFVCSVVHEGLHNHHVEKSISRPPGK

B1: Ig-EET-1 (designed binder)
chain: GCQAHYWYRVWFCKQDSDCLAGCVCGPNGFCG
B2: Ig-AMP-1 (designed binder)
chain: VGECVRGRCSKISCCSQFGYCGKGPKYCG
B3: Ig-AMP-4 (designed binder)
chain: VGECVRGRCSSISCCSQFGYCGKGPKYCG
B4: Ig-EET-4 (designed binder)
chain: GCGYWYMQWFCKQDSDCLAGCVCRPKPECG
B5: Ig-AMP-3 (designed binder)
chain: VGECVRGRCSQISCCSQFGYCGKGPKYCG
B6: WT CON (peptide)
chain: CKGKGAKCSRLMYDCCTGSCRSGKC
B7: recombinant Ig-CON-5 after TEV protease digestion (designed binder)
chain: GECKGKGAKCSSISIHDAHCCTGSCRSGKC
B8: L-EET-7 (designed binder)
chain: GCAIYHMGWMFQCKQDSDCLAGCVCGPNGFCG
B9: L-EET-5 (designed binder)
chain: GCNMYSGPWRYFCKQDSDCLAGCVCGPNGFCG
B10: L-EET-8 (designed binder)
chain: GCQIYQSQWSYLCKQDSDCLAGCVCGPNGFCG
B11: P-AST-3 (designed binder)
chain: GCAFEGESCNVQFYPCCVSMKLMCIPGNPDGTCYYL
B12: Ig-AMP-2 (designed binder)
chain: VGECVRGRCSAISCCSQFGYCGKGPKYCG

The Kd is the free concentration of one partner at which half of the binding sites on the other are occupied at equilibrium, for simple one-to-one binding. Low readings indicate higher affinity, high ones lower affinity. In general, IC50 refers to the concentration at which inhibition is half-maximal.

In the first assay the target is T2, human IgG Fc (Biotin-SP-ChromPure Human IgG, Fc fragment) (human, biotin (Biotin-SP)). The assay can be described thus: SPR; […]; Biacore S200, […] (PBS with 0.05% Tween 20, pH 7.4); […]. The following applies: both partners purified. In general terms: SPR reads the build-up and loss of mass on a sensor chip optically.
In turn, B1 showed an equilibrium dissociation constant (Kd) of 228 nM.
In turn, B2 showed a dissociation constant (Kd) of 243 nM. The Kd values of the last two molecules are within 1.5-fold of each other.
Still for that read-out and setting: as for B3, the figure is more than 1000 nM.
As to B4, the Kd worked out at 948 nM.
In turn, B5 yielded a Kd of 353 nM.
The same measure, in the same setting: as for B6, the figure is more than 20000 nM.

A further assay deals with T2, human IgG Fc (Biotin-SP-ChromPure Human …). The assay is described as follows: SPR. The note with it: both partners purified.
Regarding B7, the equilibrium dissociation constant (Kd) is 10 nM.

A further assay deals with T1, biotin-Ly6E-rat IgG2b Fc. The assay is described as follows: SPR; […]; Biacore S200, […] (PBS with 0.05% Tween 20, pH 7.4); […]. The note with it: both partners purified.
As to B8, the affinity, expressed as Kd, was 0.022 µM.
The same measure, in the same setting: with B9 the figure was more than 20 µM.
Same read-out and setting: as for B10, the figure is more than 20 µM.

For the next assay, the target named is T3, biotin-PDGF-bb (human, UniProt P01127 82-190, biotin).
T3 construct: also called human platelet-derived growth factor
T3 sequence (P01127 82-190): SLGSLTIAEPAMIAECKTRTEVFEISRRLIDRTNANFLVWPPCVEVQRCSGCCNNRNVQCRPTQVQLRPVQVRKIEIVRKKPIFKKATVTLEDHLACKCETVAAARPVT
The description is as above. The following applies: both partners purified.
The molecule B11 registered a Kd of more than 50 µM.

Another assay has as its target T2, human IgG Fc (Biotin-SP-ChromPure Human …). The assay can be described thus: ELISA; […], room temperature; […]. The note with it: both partners purified. A general note: ELISA stands for enzyme-linked immunosorbent assay.
Molecule B1 came in with an IC50 of 447 nM. This lies in the sub-micromolar range.
The same measure, in the same setting: as for B2, the figure is 55 nM.
The same measure, in the same setting: as for B3, the figure is 151 nM; as for B4, 823 nM; as for B12, 41 nM.
B5 registered a half-inhibitory concentration (IC50) of 62 nM.
